From US20240059799A1 (Pfizer, published 2024)

Experiments:
recombinant rat TL1A = molecular target: T1, recombinant rat TL1A (rat, UniProt Q8K3Y7 76-252); test: SPR, Biacore T200, 37 C; biotinylated TL1A captured on Biotin CAPture chip, antibody injected; KD value is approximate
T1 sequence: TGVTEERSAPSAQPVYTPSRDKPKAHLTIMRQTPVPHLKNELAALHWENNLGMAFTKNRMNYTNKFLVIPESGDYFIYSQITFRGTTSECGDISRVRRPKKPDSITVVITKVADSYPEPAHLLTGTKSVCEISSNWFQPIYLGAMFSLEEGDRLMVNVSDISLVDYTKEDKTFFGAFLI
Protocol: (§1) In order to determine binding to TL1A, kinetic assays were conducted at 37° C. using a collection rate of 10 Hz on a Biacore™ T200 instrument (GE Healthcare). […] For the analysis of the p40 binding arm, kinetic assays were conducted at 37° C. using a collection rate of 10 Hz on a Biacore™ 8 K+ instrument (GE Healthcare).

recombinant human TL1A [1] = molecular target: T2, recombinant human TL1A (human, UniProt O95150 71-251); test: cell-based or functional assay
T2 chain: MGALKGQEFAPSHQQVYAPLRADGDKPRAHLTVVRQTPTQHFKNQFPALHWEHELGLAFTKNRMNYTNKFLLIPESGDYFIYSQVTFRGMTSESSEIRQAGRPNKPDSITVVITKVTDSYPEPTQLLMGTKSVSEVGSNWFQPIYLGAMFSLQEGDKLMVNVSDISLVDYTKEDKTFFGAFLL

human IL-12 = molecular target: T3, human IL-12 (human, UniProt P29460 23-328; P29459 23-219); test: cell-based or functional assay
T3 sequence 1: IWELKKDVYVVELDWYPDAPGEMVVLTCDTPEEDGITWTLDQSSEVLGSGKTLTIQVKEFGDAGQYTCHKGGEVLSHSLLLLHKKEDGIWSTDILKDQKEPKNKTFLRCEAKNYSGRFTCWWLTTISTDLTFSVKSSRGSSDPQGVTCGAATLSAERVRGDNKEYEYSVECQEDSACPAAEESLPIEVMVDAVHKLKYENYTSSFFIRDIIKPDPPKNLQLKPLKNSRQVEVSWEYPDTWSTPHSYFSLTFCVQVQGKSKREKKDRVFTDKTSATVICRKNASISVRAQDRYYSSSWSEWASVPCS
T3 sequence 2: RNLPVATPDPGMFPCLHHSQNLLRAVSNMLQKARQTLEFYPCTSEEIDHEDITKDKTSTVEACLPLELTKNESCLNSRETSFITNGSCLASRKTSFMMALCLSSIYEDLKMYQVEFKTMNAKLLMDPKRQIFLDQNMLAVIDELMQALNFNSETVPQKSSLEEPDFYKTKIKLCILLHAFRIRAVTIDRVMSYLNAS

recombinant human TL1A [2] = molecular target: T2, recombinant human TL1A; test: cell-based or functional assay
human IL-23 = molecular target: T4, human IL-23 (human, UniProt P29460 23-328; Q9NPF7 20-189); test: cell-based or functional assay
T4 sequence 1: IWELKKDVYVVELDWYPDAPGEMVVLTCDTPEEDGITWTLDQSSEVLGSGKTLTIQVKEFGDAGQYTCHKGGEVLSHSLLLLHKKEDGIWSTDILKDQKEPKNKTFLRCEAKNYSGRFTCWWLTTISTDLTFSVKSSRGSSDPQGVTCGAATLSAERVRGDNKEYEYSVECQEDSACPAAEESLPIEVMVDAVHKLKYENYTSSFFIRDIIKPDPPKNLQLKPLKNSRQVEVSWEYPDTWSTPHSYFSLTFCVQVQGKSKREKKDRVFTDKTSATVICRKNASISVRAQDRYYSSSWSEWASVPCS
T4 sequence 2: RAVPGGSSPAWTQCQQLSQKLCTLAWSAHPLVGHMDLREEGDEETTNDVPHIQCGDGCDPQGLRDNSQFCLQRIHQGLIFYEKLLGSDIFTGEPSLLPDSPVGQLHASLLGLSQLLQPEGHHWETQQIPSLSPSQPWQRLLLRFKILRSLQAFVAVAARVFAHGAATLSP

mouse IL-12 = molecular target: T5, mouse IL-12 (mouse, UniProt P43432 23-335; P43431 23-215); test: SPR, Biacore 8K+, 37 C; antibody captured by anti-human Fc, cytokine injected
T5 sequence 1: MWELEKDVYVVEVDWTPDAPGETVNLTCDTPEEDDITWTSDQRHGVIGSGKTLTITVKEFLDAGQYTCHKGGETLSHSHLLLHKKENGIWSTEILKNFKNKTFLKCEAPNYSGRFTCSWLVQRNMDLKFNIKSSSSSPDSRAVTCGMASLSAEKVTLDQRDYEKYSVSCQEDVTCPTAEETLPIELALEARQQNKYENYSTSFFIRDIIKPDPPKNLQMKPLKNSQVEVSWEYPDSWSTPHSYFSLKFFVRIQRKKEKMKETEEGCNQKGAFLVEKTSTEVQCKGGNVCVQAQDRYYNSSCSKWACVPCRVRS
T5 sequence 2: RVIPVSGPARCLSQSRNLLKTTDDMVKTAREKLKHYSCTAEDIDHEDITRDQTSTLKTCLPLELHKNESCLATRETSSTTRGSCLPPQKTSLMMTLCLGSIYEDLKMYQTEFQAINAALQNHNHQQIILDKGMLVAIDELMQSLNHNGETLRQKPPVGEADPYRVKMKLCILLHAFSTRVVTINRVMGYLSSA
Protocol: as §1

mouse IL-23 = molecular target: T6, mouse IL-23 (mouse, UniProt P43432 23-335; Q9EQ14 22-196); test: as above
T6 sequence 1: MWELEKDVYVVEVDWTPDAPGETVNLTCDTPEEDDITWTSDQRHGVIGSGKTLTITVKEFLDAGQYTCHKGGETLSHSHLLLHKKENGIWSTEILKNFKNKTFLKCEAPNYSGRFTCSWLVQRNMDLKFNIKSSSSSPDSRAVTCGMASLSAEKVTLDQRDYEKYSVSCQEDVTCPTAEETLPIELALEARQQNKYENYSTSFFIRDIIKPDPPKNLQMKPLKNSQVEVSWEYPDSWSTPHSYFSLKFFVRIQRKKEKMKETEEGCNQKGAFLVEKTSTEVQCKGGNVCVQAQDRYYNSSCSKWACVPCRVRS
T6 sequence 2: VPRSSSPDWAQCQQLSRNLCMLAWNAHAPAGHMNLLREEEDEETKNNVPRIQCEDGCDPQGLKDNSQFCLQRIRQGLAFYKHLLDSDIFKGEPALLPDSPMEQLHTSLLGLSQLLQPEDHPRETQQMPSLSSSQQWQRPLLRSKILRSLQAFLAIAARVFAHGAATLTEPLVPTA
Protocol: as §1

cynomolgus monkey IL-12 = molecular target: T7, cynomolgus monkey IL-12 (cynomolgus monkey); test: as above
T7 construct: also called cyno IL-12
T7 chain 1: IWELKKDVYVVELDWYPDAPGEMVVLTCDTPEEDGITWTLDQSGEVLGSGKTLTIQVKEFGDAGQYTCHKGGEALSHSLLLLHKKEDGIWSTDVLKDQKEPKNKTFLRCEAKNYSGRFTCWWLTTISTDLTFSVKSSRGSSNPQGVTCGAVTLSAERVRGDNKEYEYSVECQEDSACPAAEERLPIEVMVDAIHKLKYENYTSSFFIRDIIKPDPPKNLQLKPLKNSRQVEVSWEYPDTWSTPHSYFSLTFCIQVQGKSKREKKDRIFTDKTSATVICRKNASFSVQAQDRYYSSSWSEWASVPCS
T7 chain 2: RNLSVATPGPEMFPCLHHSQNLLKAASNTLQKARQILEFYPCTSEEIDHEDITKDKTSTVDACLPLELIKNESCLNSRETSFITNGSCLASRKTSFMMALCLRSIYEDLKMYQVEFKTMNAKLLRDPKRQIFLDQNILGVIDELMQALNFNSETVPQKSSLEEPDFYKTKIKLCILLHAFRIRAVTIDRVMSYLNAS
Protocol: as §1

Kd (recombinant rat TL1A): ~1080 nM
NF-κB assay IC50 (TF-1 reporter cells, 384-well) (recombinant human TL1A [1]): 0.31 nM
KIT-225 STAT4 assay IL-12, Bioactivity relative to p40-0003 (human IL-12): 1.4 fold
KIT-225 STAT4 assay IL-12 IC50 (human IL-12): 4.8 nM
NF-κB assay IC50 (TF-1 reporter cells) (recombinant human TL1A [2]): 0.131 nM
NF-κB assay, Bioactivity relative to TL1A-0372 (recombinant human TL1A [2]): 1.3 fold
KIT-225 STAT3 assay IL-23, Bioactivity relative to p40-0003 (human IL-23): 1.4 fold
KIT-225 STAT3 assay IL-23 IC50 (human IL-23): 2.3 nM
binding result (mouse IL-12): no binding (tested: 200 nM)
binding result (mouse IL-23): no binding (tested: 200 nM)
Kd (cynomolgus monkey IL-12): 0.267 nM
koff (cynomolgus monkey IL-12): 0.000636 s⁻¹
kon (cynomolgus monkey IL-12): 2.38e+06 M⁻¹ s⁻¹
B1: p40TL1A-0033 bispecific antibody (bispecific antibody, human IgG1, kappa)
heavy: EVQLVQSGAEVKKPGESLKISCKGSGYSFTTYWLGWVRQMPGKGLDWIGIMSPVDSDIRYSPSFQGQVTMSVDKSITTAYLQWNSLKASDTAMYYCARRRPGQGYFDFWGQGTLVTVSSASTKGPSVFPLAPSSKSTSGGTAALGCLVKDYFPEPVTVSWNSGALTSGVHTFPAVLQSSGLYSLSSVVTVPSSSLGTQTYICNVNHKPSNTKVDKKVEPKSCDKTHTCPPCPAPEAAGAPSVFLFPPKPKDTLMISRTPEVTCVVVDVSHEDPEVKFNWYVDGVEVHNAKTKPREEQYNSTYRVVSVLTVLHQDWLNGKEYKCKVSNKALPAPIEKTISKAKGQPREPQVCTLPPSREEMTKNQVSLWCLVKGFYPSDIAVEWESNGQPENNYKTTPPVLDSDGSFFLYSKLTVDKSRWQQGNVFSCSVLHEALHSHYTQKSLSLSPGK
light: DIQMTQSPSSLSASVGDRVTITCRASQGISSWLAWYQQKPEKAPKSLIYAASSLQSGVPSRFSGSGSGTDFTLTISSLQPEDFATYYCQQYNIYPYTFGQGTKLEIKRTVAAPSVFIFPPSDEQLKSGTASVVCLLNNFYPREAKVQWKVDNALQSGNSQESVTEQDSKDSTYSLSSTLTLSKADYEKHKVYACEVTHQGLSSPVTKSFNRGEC
chain 1: not shown
chain 2: QVQLVQSGAEVKKPGASVKVSCKASGYDYTYYGISWVRQAPGQGLEWMGWISTYNTGTHYAPSLQGRVTMTTDTSTSTAYMELRSLRSDDTAVYYCARESYYGSGAFRGGMDVWGQGTTVTVSSASTKGPSVFPLAPSSKSTSGGTAALGCLVKDYFPEPVTVSWNSGALTSGVHTFPAVLQSSGLYSLSSVVTVPSSSLGTQTYICNVNHKPSNTKVDKKVEPKSC
notes: Single cell KiH, modified Fd format; IgG1 effector-function-minimized Fc with LS mutations
